Reference: US20150197559A1 (University of California, published 2015)
Residue numbers refer to the chain shown, from its start.

Legend:
BoNT/A1 (Hall hyper) [1] = target: T1, BoNT/A1 (Hall hyper) (Clostridium botulinum, UniProt P0DPI0 2-1296); test: flow cytometry, yeast-displayed scFv, soluble toxin
BoNT/A1 (Hall hyper) [2] = target: T1, BoNT/A1 (Hall hyper); test: flow cytometry, yeast-displayed scFv, soluble BoNT/A1
BoNT/A1 (Hall hyper) [3] = target: T1, BoNT/A1 (Hall hyper); test: flow cytometry, yeast-displayed scFv, soluble toxin; remark: listed apart in the source
BoNT/A1 (Hall hyper) [4] = target: T1, BoNT/A1 (Hall hyper)
BoNT/A1 (Hall hyper) [5] = target: T1, BoNT/A1 (Hall hyper); test: KinExA flow fluorimetry, IgG in solution
BoNT/B1 [6] = target: T2, BoNT/B1 (Clostridium botulinum, UniProt P10844 2-1291); test: yeast-displayed Fab against parental B11 scFv, flow cytometry
T2 sequence: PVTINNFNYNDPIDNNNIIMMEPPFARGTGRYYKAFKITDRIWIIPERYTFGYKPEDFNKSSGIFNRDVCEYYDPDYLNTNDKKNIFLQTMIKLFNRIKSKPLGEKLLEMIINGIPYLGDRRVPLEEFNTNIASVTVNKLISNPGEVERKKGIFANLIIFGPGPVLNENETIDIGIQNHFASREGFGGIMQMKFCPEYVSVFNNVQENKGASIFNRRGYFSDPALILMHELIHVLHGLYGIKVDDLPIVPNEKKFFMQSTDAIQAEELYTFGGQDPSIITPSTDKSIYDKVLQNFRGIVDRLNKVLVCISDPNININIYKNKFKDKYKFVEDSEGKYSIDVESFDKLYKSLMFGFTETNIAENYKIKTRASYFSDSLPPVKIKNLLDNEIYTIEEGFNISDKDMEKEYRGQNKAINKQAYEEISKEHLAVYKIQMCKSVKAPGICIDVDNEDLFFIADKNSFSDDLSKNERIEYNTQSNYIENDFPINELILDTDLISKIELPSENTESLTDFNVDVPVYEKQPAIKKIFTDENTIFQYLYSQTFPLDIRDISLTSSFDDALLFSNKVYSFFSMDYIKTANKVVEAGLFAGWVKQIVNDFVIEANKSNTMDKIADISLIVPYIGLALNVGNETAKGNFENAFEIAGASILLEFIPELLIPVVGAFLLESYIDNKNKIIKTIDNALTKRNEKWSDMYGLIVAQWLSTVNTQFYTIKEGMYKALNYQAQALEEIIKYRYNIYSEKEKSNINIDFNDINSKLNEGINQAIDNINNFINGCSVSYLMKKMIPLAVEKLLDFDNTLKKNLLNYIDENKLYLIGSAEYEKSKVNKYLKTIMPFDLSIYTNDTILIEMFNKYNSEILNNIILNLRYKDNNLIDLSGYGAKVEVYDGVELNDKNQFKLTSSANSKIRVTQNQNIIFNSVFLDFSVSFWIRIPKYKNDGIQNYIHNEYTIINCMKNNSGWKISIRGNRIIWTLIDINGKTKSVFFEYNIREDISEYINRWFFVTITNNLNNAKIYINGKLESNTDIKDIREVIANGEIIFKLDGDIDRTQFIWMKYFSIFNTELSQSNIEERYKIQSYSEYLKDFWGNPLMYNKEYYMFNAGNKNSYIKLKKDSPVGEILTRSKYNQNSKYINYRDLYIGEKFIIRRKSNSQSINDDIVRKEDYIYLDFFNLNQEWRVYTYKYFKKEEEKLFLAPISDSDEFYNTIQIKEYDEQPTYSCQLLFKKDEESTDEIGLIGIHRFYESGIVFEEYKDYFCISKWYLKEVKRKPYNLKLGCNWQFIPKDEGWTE

BoNT/B1 [7] = target: T2, BoNT/B1; test: flow cytometry, yeast-displayed Fab, soluble toxin
BoNT/B1 [8] = target: T2, BoNT/B1; test: flow cytometry, yeast-displayed Fab against yeast-displayed scFv
BoNT/B1 [9] = target: T2, BoNT/B1; test: KinExA flow fluorimetry, IgG in solution
BoNT/B1 [10] = target: T2, BoNT/B1
BoNT/B1 [11] = target: T2, BoNT/B1; test: flow cytometry, yeast-displayed scFv, soluble toxin
BoNT/B1 [12] = target: T2, BoNT/B1; test: flow cytometry, yeast-displayed parental scFv
BoNT/A1 (Hall hyper) [13] = target: T1, BoNT/A1 (Hall hyper); test: flow cytometry, yeast-displayed Fab, soluble toxin
BoNT/A1 (Hall hyper) [14] = target: T1, BoNT/A1 (Hall hyper); test: flow cytometry, yeast-displayed Fab against yeast-displayed scFv
BoNT/B3 = BoNT/B3 (Clostridium botulinum); test: flow cytometry, yeast-displayed scFv, soluble toxin
BoNT/B4 = BoNT/B4 (Clostridium botulinum); test: as above
BoNT/B2 = BoNT/B2 (Clostridium botulinum); test: as above
BoNT/B1 [15] = target: T2, BoNT/B1; test: as above; remark: listed apart in the source
BoNT/B1 [16] = target: T2, BoNT/B1; test: yeast-displayed Fab against parental B6 scFv, flow cytometry
BoNT/B1 [17] = target: T2, BoNT/B1; test: flow cytometry, yeast-displayed Fab, soluble toxin; remark: listed apart in the source

B1: ING2 scFv (scFv, V domains shown)
VH: QVQLVQSGAEVKKPGSSVKVSCKASGDTFNRNAIAWVRQAPGQGLEWMGRIIPNLRTTHYAQKFQGRVAITADKHTNTVFMELSSLRSEDTAVYYCARDPYYYSYMDVWGKGTTVTVSS
VL: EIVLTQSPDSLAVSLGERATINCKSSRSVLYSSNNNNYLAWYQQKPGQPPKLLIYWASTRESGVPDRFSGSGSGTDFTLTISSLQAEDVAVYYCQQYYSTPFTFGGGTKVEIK
- Kd (BoNT/A1 (Hall hyper) [1]): 0.24 nM
- Kd (BoNT/A1 (Hall hyper) [2]): 0.25 nM
- Kd (BoNT/A1 (Hall hyper) [3]): 0.238 nM

B2: ING2 IgG (antibody, V domains shown)
VH: B1 VH
VL: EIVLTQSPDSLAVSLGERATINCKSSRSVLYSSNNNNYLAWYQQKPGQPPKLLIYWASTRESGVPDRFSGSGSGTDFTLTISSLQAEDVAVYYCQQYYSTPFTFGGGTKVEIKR
- fold increase in affinity, IgG against parental scFv (BoNT/A1 (Hall hyper) [4]): 1.5 to 25 fold
- Kd (BoNT/A1 (Hall hyper) [5]): 0.00957 nM

B3: B11E8 Fab (Fab, V domains shown)
VH: EVQLVQSGGGVVQPGRSLRLSCAASGFIFRTYGMHWVRQAPGKGLEWVAFVSSDGNNKFYSDSVKGRFTISRDNAKNTLYLQMNSLETEDTAMYYCAKDRYPIDCSGGSCFSYGMDVWGQGTTVTVSS
VL: EIVLTQSPATLSVSPGERATLSCRASQSVSKFLAWYQQKRGQAPRLLIYGASTRATGIPARFSGSGSGTEFALTISSLQSEDFADYYCQQYDNWPITFGQGTRLEIKR
- KD wild type/KD matured (BoNT/B1 [6]): 32 fold
- Kd (BoNT/B1 [7]): 0.081 nM

B4: B11 Fab (Fab, V domains shown)
VH: B3 VH with E1Q, V5L, G8A, S71P, M93V
VL: DIVMTQSPSTLSASVGDRVTVTCRASQSINSWLAWYQQKPGKAPKLLIYEASSLESGVPSRFSGSGSGTEFTLTISSLQPDDFATYYCQQYDSYWLTFGGGTKVEIKR
- fold lower affinity than the scFv (BoNT/B1 [8]): 2.5 fold

B5: B11E8 IgG (antibody, V domains shown)
VH: B3 VH
VL: B3 VL
- Kd (BoNT/B1 [9]): 0.00659 nM
- fold increase in affinity, IgG against yeast displayed Fab (BoNT/B1 [10]): 4.85 fold

B6: B6 scFv (scFv)
scFv: QVQLVQSGAEVKKPGESLVISCKASGDKDTFTSFWIAWVRQMPGKGLEWMGIIYAGDSDTRYSPSFQGHVNISVDRSTNTAYLQWSSLKASDTAMYYCARHDSRYKYFYFGMDVWGQGTTVTVSSGGGGSGGGGSGGGGSDVVMTQSPSSLSASVGDRITITCQAGQDISNFLNWYQQKPGKAPKLLIRDASNLETGVPSRFSGGGSGTHFTFTISSLHPEDIATYFCQQYDNLPYTFGQGTKLEIK
- Kd (BoNT/B1 [11]): 2.71 nM
- Kd (BoNT/B1 [12]): 2.71 nM

B7: ING1 IgG (antibody, V domains shown)
VH: QVQLQQSGGGLVQPGGSLRLSCAASGFTFSNYAMTWVRQAPGKGLEWVSSISVGGSDTYYADSVKGRFTVSRDNSKNTLLLQMNSLRAEDTAVYYCAKVRTKYCSSLSCFAGFDSWGQGTRVTVSS
VL: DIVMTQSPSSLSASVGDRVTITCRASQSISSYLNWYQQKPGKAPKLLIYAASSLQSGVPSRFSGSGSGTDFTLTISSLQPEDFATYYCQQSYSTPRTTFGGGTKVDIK
- Kd (BoNT/A1 (Hall hyper) [5]): 0.314 nM

B8: ING1 Fab (Fab, V domains shown)
VH: B7 VH
VL: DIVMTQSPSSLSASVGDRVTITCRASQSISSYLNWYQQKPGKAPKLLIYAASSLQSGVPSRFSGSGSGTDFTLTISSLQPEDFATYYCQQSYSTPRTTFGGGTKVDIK
- Kd (BoNT/A1 (Hall hyper) [13]): 20.6 nM
- fold lower affinity than the scFv (BoNT/A1 (Hall hyper) [14]): 3.9 fold

B9: 2B29 scFv (scFv, V domains shown)
VH: QVQLQESGPGLVKPSETLSLTCSVSGGSINSGTYYWTWIRQHPGKGLEWIGYIYYSGTTYYNPSLKSRVSMSVDTSKNLFSLKMNSVTAADTALYYCARGNPQYDTSGSYTGLYFDFWGQGTLVTVSS
VL: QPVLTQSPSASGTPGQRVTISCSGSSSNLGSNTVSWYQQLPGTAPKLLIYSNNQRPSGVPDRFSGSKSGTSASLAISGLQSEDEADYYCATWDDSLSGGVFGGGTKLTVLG
- Kd (BoNT/B3): 1.61 nM
- Kd (BoNT/B4): 1.29 nM
- Kd (BoNT/B2): 1.02 nM
- Kd (BoNT/B1 [15]): 1.11 nM

B10: B11 scFv (scFv)
scFv: QVQLLQSAGGVVQPGRSLRLSCAASGFIFRTYGMHWVRQAPGKGLEWVAFVSSDGNNKFYSDSVKGRFTIPRDNAKNTLYLQMNSLETEDTAVYYCAKDRYPIDCSGGSCFSYGMDVWGQGTTVTVSSGGGGSGGGGSGGGGSDIVMTQSPSTLSASVGDRVTVTCRASQSINSWLAWYQQKPGKAPKLLIYEASSLESGVPSRFSGSGSGTEFTLTISSLQPDDFATYYCQQYDSYWLTFGGGTKVEIK
- Kd (BoNT/B1 [11]): 2.62 nM
- Kd (BoNT/B1 [12]): 2.62 nM

B11: 1B11 scFv (scFv)
chain: B10 scFv
- Kd (BoNT/B3): 4.43 nM
- Kd (BoNT/B1 [15]): 2.6 nM

B12: 2B27 scFv (scFv, V domains shown)
VH: EVQLQESGPGLVKPSETLSVTCAVSGGSISSSNYSWAWIRQPPGKGLEWIGTMYYSGSTHYHPSLKSRVTISVDTSKSQLSLKLSSVTAADTAVYYCARRRLLGPSPYYFDYWGQGTLVTVSS
VL: QSVVTQPPSVSGAPGQRVTISCSGSSSNIGAGYDVHWYQQLPGTAPKLLIYGNNNRPSGVPDRFSGSKSGTSASLAITGLQAEDEADYYCQSYDSSLSAYVFGTGTKLTVLG
- Kd (BoNT/B3): 2.32 nM
- Kd (BoNT/B4): 0.77 nM
- Kd (BoNT/B2): 0.56 nM
- Kd (BoNT/B1 [15]): 1.9 nM

B13: B6.1 Fab (Fab, V domains shown)
VH: QVQLVQSGAEVKKPGESLVISCKASGDKDTFTSFWIAWVRQMPGKGLEWMGIIYAGDSDTRYSPSFQGHVNISVDRSTNTAYLQWSSLKASDTAMYYCARHDSRYKYFYFGMDVWGQGTTVTVSS
VL: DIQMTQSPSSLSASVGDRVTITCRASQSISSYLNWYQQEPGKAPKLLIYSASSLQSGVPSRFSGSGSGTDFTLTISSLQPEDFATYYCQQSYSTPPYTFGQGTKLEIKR
- KD wild type/KD matured (BoNT/B1 [16]): 9 fold
- Kd (BoNT/B1 [17]): 0.286 nM
- Kd (BoNT/B1 [7]): 0.286 nM

B14: B6.1 IgG (antibody, V domains shown)
VH: B13 VH
VL: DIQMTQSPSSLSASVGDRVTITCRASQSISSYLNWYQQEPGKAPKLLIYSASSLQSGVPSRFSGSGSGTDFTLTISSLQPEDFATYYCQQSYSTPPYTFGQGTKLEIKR
- Kd (BoNT/B1 [9]): 0.00682 nM
- fold increase in affinity, IgG against yeast displayed Fab (BoNT/B1 [10]): 42 fold
